In patent publication US12534540B2, “CYP1A1-targeted monoclonal antibody with reactivity across vertebrate taxa” (Clemson University Research Foundation, priority 2023, dated 2026):
Where two headings read alike, the source gives them in different places.

Legend:
[1] = test system: zebrafish CYP1A peptide used for immunizations
Description: Primary hybridoma supernatants were then screened by ELISA against unconjugated peptide for a minimal signal of three-fold optical density readings above wells probed with an irrelevant antibody (mAb 3F9 against major vault protein), then cloned by limiting dilution for further testing.

[2] = biological target: core vertebrate CYP1A sequence IRDITSLI (SEQ ID NO:35) (Homo sapiens, UniProt P04798); experiment: ELISA against conserved core CYP1A peptide; format: binding; settings: FIG. 1 panel B
Description: Using additional screening approaches, ELISAs were carried out to determine if either of the three mAbs would recognize the core vertebrate CYP1A sequence [sequence] (SEQ ID NO:35)). […] Based on the general rule of thumb that confluent supernatants contain approximately 30 μg/mL of specific antibody, a total of 60 μg of the peptide in 100 μL PBS as the highest concentration was serially diluted and 50 μL of each dilution were mixed with 50 μL confluent supernatants to yield 100 μL of total mixture for screening ELISA plates coated with the original zebrafish peptide. This mixture of hybridoma supernatant and peptide dilutions was allowed to incubate overnight at 4° C. The next day these mixtures of 100 μL total sample were mixed by gentle agitation and added to zebrafish CYP1A1 peptide-pre-coated ELISA plates and incubated for 2 h at RT. After extensive washings with PBST, the plates were incubated with goat anti-mouse IgG conjugated with alkaline phosphatase for 2 h, washed extensively, and developed and quantified at 405 nm and the data recorded.

CYP1A [3] = experiment: Tissue immunohistochemistry, rainbow trout liver; settings: rainbow trout treated with 3-NF; FIG. 3 panels G and H
Description: (§1) Grossly dissected archived tissues (fixed and stored at 4° C. in 70% ethanol) were processed and embedded in ParaPlast Extra. Newly embedded tissues were then sectioned and affixed to charged slides for immunohistochemistry. Mouse liver tissues used for this study were from previous studies wherein mice were exposed to 1 mg/kg PCB-126 prior to tissue fixation. Archived rainbow trout livers (and microsomes stored at −80° C. from beta-naphthoflavone ([…])-treated animals from a previous study (Rice et al. 1998 Mar. environ. Res. 46:87-91) were used for immunohistochemistry and immunoblotting. Archived liver tissue from Gulf killifish collected from sites affected by the Deepwater Horizon spill (DHOS) were analyzed for CYP1A alongside livers from a lab-held colony of CYP1A-recalcitrant Gulf killifish, which is used as a molecular control (naturally acquired CYP1A knockdown) (Oziolor et al. 2016 Aquat. Toxicol. 175:222-231). Finally, previously analyzed embryonic chicken livers exposed to airborne volatiles from DHOS oil were included for additional species comparison.
(§2) Zebrafish (strain AB) exposed to PCB-126 (Ulra Scientific) were also used for this study. Zebrafish were housed at the former Clemson Institute of Environmental Toxicology, Pendleton SC and maintained under Clemson University IACUC approved methods. […]

[4] = test system: induced CYP1A1 across vertebrate taxa; format: binding
Description: Screening mAbs against cell line lysates: […] This medium also supports the growth of frog XLK-WG cells (ATCC, Manassas, VA, USA). Other cells and tissues used for testing and screening are outlined in Table 2. Arochlor 1254-induced and non-induced rat liver S9 fractions were thawed immediately upon receipt from the supplier and prepared for SDS-PAGE-immunoblotting by boiling for 7 min in reducing sample buffer (Thermo Fisher J61337.AD) containing 50 μM PMSF. Commercially sourced HEK cell lysates over-expressing recombinant human CYP1A1 (Origene, Rockville, MD, USA) were prepared similarly. […]-1, and HEPA1C1C7 cells were grown to near confluence in 6-well plates ([…], Corning). Plates seeded with ZFL cells and PLHC-1 cells were sealed with parafilm and kept in sealed containers to avoid external CO2. Cells were treated for 48 h with 10 μM PCB-126 (CAS 57465-28-8, Ultra Scientific) dissolved in DMSO or 0.01% DMSO as a carrier control. XLK-WG cells were grown to near confluence in sealed T-75 flasks, then treated for 12 h with 50 nM of the AHR ligand 6-Formylindolo [3,2-b] carbazole (FICZ) (CAS 172922-91-7, Tocris Biosciences, Bristol, UK) in DMSO or 0.01% DMSO, and again for an additional 12 h with the same. […] Overlying supernatants were removed and transferred to clean tubes and the protein content quantified. […]

CYP1A [5] = biological target: T1, CYP1A (Mus musculus, UniProt P00184)
T1 sequence (P00184 1-524): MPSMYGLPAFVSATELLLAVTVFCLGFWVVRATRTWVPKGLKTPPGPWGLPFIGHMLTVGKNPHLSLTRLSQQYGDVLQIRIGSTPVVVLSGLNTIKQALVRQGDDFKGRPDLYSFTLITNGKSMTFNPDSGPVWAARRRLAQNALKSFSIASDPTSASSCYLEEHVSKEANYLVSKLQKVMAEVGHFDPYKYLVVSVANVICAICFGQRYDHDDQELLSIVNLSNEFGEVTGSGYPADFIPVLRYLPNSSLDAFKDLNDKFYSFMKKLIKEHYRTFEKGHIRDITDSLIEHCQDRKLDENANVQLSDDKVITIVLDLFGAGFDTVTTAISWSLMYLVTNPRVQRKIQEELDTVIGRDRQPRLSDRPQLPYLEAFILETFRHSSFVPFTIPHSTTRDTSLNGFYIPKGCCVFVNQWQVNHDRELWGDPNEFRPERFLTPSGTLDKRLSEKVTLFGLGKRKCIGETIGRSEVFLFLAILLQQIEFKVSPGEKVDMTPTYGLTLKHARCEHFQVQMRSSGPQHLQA
Description: as §1
(§3) Zebrafish (strain AB) exposed to PCB-126 (Ulra Scientific) were also used for this study. Zebrafish were housed at the former Clemson Institute of Environmental Toxicology, Pendleton SC and maintained under Clemson University IACUC approved methods. Two juvenile male and two juvenile female zebrafish (40 dpf) were exposed for 48 h to either 10 μM PCB-126 or 0.10% DMSO in 1 L glass bottles containing maintenance water from the recirculating system and supplied with gentle aeration. Following exposure, the 4 fish per treatment were euthanized on ice with buffered Tricaine®, their abdominal cavities opened, and placed in 10% aqueous buffered zinc formalin (Z-Fix, Anatech, Ltd., Battle Creek, MI, USA) for 2 days, and the fixative replaced with 70% ethanol and stored at 4° C. Prior to processing, zebrafish were decalcified in 0.35 M EDTA, pH 7.8 at room temperature (RT) for 6 days, then processed for microtomy as above. Fish and chicken tissue IHC was performed using a horse-anti-mouse IgG VectaLabs ABC-Elite kit (PK-6102), while mouse tissue IHC was performed using the mouse-on-mouse (M.O.M.) anti-mouse IgG VectaLabs ABC-Ultra kit (BMK-2202)
(§4) Whole zebrafish tissues were sectioned at 7-9 μm and mouse, trout, killifish, and chicken tissues were sectioned at 4-5 μm on a Microm 325 rotary microtome. […] Additional screening assays included isotype controls.

CYP1A [6] = test system: CYP1A
Description: as §1, §3, §4

CYP1A [7] = experiment: Tissue immunohistochemistry, Gulf killifish liver; settings: crude oil-exposed adult gulf killifish vs genetically resistant population; FIG. 3 panels E and F
Description: as §1, §2

Sequence of zebrafish CYP1A peptide used for immunizations (as listed by the source): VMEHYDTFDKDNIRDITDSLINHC

B1: mAb CRC4: zebrafish CYP1A-targeted mouse monoclonal antibody; VH SEQ ID NO:17, VL SEQ ID NO:20, CDRs SEQ ID NOs:28-33 (antibody, V domains shown)
VH: QVTLKESGPGILQPSQTLSLTCSFSGFSLSTSGMGVNWIRKPSGKGLEWLAHIFWDDDKRYNPSLKSRLTISKDTSRNQVFLMITSVDTADTATYYCASLAMDYWGQGTSVTVSS
VL: DIVMTQGASSVTVTPGESVSISCRSSKSLLHSNGRTFLYWFLQRPGQSPQLLIYRMSNLASGVPDRVSGSGSGTAFTLRISRVEAEDVGVYYCMQHLEYPFTFGGGTRLELK
ELISA reactivity against zebrafish CYP1A peptide (selection criteria) [1]: meeting selection criteria | recognition of core vertebrate CYP1A peptide by ELISA [2]: recognized this peptide sequence | CYP1A staining intensity in liver by IHC (CYP1A [3]): most intense staining | recognition of treatment-induced CYP1A protein by immunoblotting [4]: recognized by mAb CRC4 across all vertebrate taxa examined | CYP1A detection in liver by IHC (CYP1A [5]): easily detected in PCB-126-exposed mouse livers but not unexposed controls | CYP1A detection in liver by IHC (CYP1A [6]): easily detected | CYP1A staining intensity in liver by IHC (CYP1A [6]): most intense staining | staining after antigen retrieval (CYP1A [6]): more favorable staining | staining intensity of chicken tissues compared with mAb C10-7 (CYP1A [6]): same intensity as seen using mAb C10-7 | CYP1A detection in liver by IHC (CYP1A [7]): easily detected in adult gulf killifish but not in individuals from a genetically resistant population
